A short description of the series: soluble on expression in E. coli; label from the status in PepcDB or PDB records.
As for “SNAMIRKYRYGAPFDTEALTEKIETAEEAFPYGEISQKEGFAFTYIMDEDDIVYGLGESNRGINKRGYCYISNCTDDPIHTEDKRSLYGAHNFIIVSGKTTFGLFFDYPSKLTFDIGYTRMDTLKVSCENADLDIYVIEGENAYDIVKQFRRVIGRSYIPPKFAFGFGQSRWGYTTKEDFRAVAKGYRENHIPIDMIYMDIDYMQDFKDFTVNEKNFPDFPEFVKEMKDQELRLIPIIDAGVKVEKGYEVYEEGVKNNYFCKREDGSDFVAAVWPGDTHFPDMLNPEARKWFGDKYRFLIDQGIEGFWNDMNEPAIFYSSEGLAEAKEFAGEFAKDTEGKIHPWAMQAKMKDIVNSPEDYKRFYHNVNGKKIRHDKVHNLFGYNMTRAAGEAFERIDPEKRFLMFSRSSYIGMHRYGGIWMGDNKSWWSHILLNLKMLPSLNMCGFMYTGADLGGFGDDTTRDLLLRFLALGVFTPLMRDHAAEGTREQECYQFENIEDFRSVINARYRLVPYLYSEYMKAALNDDMYFKPLGFVYPDDKMAIRVEDQLMLGNEIMIAPVYEQNARGRYVYLPEEMKFIKFMPDGSISEEVLEKGVHYVDVALNEVPLFIRSGKCIPVAEAAECVKDIDTENMQLIGYEGSSYTLYEDDGIHKDYDKKENYRVLTK”, the “soluble on expression in E. coli” value was “soluble”.
In the case of “MLCTHIKAEDCVERVPKGMFRKKQDMEDNNLFLEGNSNRGKVVKNQEIIKTFCDECDNCNKSLMCLTCGRILCGRNDSGHALHHFEETSHPVVIDCISFELYCYSCDDEVSLDFEPSLYGVLKSLKLLFDREDVMEGGDGPTIPAQPFHSRKNRISHEKSDKLRFSVKKTPIFLRNSIFLSGISENFDFSVKNGKKHQKSIFPPKKPKKSDLSAQKTSKSVFAPKQPKNSEFFNPKKHQISIFPTKNPQKFLFSVEKSIFSTINVQKCAPKKHQISIFPPKKPKNSDFPLKNPQFSFRTVTSVASTFTQKLHVAPASRNSKKKRGKKGKVSPMFVDTPPFQQQQGAAVIHDVTLSSTNSTSSGSGGATSSSEIAYRPRGMRNVGNTCFMNAVLQALASISEFREYIMSLSSLEDYIHDEKEPKNGGNYCYLTDEYRKLLISQSARSFREPTAPNEFREAFISVCPRFRGFRQHDSHEFMRYFMDSLHTEMRKCRKLPGMPDDKHTPISKYFEGTLQSSVICQTCRNCSNKIDEFMDLSLDIPAQRNASKVRLSDCLSTFFKLEMLEKGEKPECAKCKTKQTCSKQMFIRKLPQDSDEAPCTYSLQSIIVHIGYGCGSGHYIAFGKRNGRWFQFDDTVVKGVDEAHVSKQKAYVLLYTKIIRKID” it was “not soluble”; in that of “MADNLSDTLKKLKITAVDKTEDSLEGCLDCLLQALAQNNTETSEKIQASGILQLFATLLTPQSSCKAKVANIIAEVAKNEFMRIPCVDAGLISPLVQLLNSKDQEVLLQTGRALGNICYDSHEGRSAVDQAGGAQIVIDHLRSLCSITDPANEKLLTVFCGMLMNYSNENDSLQAQLINMGVIPTLVKLLGIHCQNAALTEMCLVAFGNLAELESSKEQFASTNIAEELVKLFKKQIEHDKREMIFEVLAPLAENDAIKLQLVEAGLVECLLEIVQQKVDSDKEDDITELKTGSDLMVLLLLGDESMQKLFEGGKGSVFQRVLSWIPSNNHQLQLAGALAIANFARNDANCIHMVDNGIVEKLMDLLDRHVEDGNVTVQHAALSALRNLAIPVINKAKMLSAGVTEAVLKFLKSEMPPVQFKLLGTLRMLIDAQEAAEQLGKNVKLVERLVEWCEAKDHAGVMGESNRLLSALIRHSKSKDVIKTIVQSGGIKHLVTMATSEHVIMQNEALVALALIAALELGTAEKDLESAKLVQILHRLLADERSAPEIKYNSMVLICALMGSECLHKEVQDLAFLDVVSKLRSHENKSVAQQASLTEQRLTVES”, “not soluble”.
Under “MGSDKIHHHHHHMMFVVNRHINYTDICVAKCPLCAFNNREGYLLSPEEILRKVREVDGITEVHIVGGHNPEVGVEYFEEVFRRIKREKPEVVIKALTATEVYYYAKKEKMSIREFLSRLKDAGLQAMPGGGAEILVDSVRRKISPNKCSSDEWLRVMKIAHELGIKSNATMLFGHVEEIRHRAIHLYRLRKLQEKTGGFVSFIPLVYHPENNPLGKIVREKTNPVDILKTIAVSRIALDNFRSVRAYWVMLGEKLTEVALRFGANDIDGTVVEEKVTHAAGAETPAGLTVERLVEICRSAGKRVGQRDTFCNILKWYA” stands “not soluble”.
As to “DKSPSSLTLALGKNIAGRPTVADLARMPHLLVAGTTGSGKSVAVNAMVLSLLFKASHNDLRMLMIDPKMLELSVYQGIPHLLAPVVTDMKEAANGLRWCVAEMERRYKLMSAVGVRNLAGFNKKVKDAEEAGQPLMDPLFKPNPDLSEVPRPLQKLPFIVIFIDEFADMMMIVGKKVEELIARLAQKARAAGIHLILATQRPSV”, the “soluble on expression in E. coli” value was “not soluble”.
“MTGVGTPSPSLEWRRRVMSWTDERVSTLKKLWLDGLSASQIAKQLGGVTRNAVIGKVHRLGLSGRAAPSQPARPAFKAPRPARPAAQAMPSAPRRVTPVEAPTSVPVAAAPAPLPAFRHEEPGSATVLTLGAHMCKWPIGDPSSEGFTFCGRRSSEGPYCVEHARVAYQPQQTKKKSGGAELARSLRRYILEHHHHHH”: the “soluble on expression in E. coli” value is “not soluble”.
Under “MVHWADYIADKIIRERGEKEKYVVESGITPSGYVHVGNFRELFTAYIVGHALRDKGYEVRHIHMWDDYDRFRKVPRNVPQEWKDYLGMPISEVPDPWGCHESYAEHFMRKFEEEVEKLGIEVDLLYASELYKRGEYSEEIRLAFEKRDKIMEILNKYREIAKQPPLPENWWPAMVYCPEHRREAEIIEWDGGWKVKYKCPEGHEGWVDIRSGNVKLRWRVDWPMRWSHFGVDFEPAGKDHLVAGSSYDTGKEIIKEVYGKEAPLSLMYEFVGIKGQKGKMSGSKGNVILLSDLYEVLEPGLVRFIYARHRPNKEIKIDLGLGILNLYDEFEKVERIYFGVEGGKGDDEELRRTYELSMPKKPERLVAQAPFRFLAVLVQLPHLTEEDIINVLIKQGHIPRDLSKEDVERVKLRINLARNWVKKYAPEDVKFSILEKPPEVEVSEDVREAMNEVAEWLENHEEFSVEEFNNILFEVAKRRGISSREWFSTLYRLFIGKERGPRLASFLASLDRSFVIKRLRLEG” stands “soluble”; under “MGSDKIHHHHHHMKLGILEKYRRFLPVTDKTPMLSLNEGNTPLIPLVNMSRELGINIYVKYEGSNPTGSFKDRGMVVAVAKALEEGSKAIMCASTGNTSASAAAYAARAGIKAIVLIPEGKIALGKLAQAMIYGAVVLQVRGNFDKCLELVKEITSKYPITLVNSINPYRLEGQKTAAFEIVDELGDAPDYHFIPVGNAGNISAYWMGYKEYYQHGFSTKLPKMMGFQAEGAAPIVRGHPIENPETVATAIRIGNPANWEKAVRARDESGGDIDMVSDEEILRAQRLLAQKEGIFCEPASAASIAGLLKKHRQGIFRGGEIVVCTLTGNGLKDPNIVISQLEPPRIIEGRVEEILEVLDI”, “not soluble”.
In the case of “GLSDRYQRVKKLGSGAYGEVLLCKDKLTGAERAIKIIKKSSVTTTSNSGALLDEVAVLKQLDHPNIMKLYEFFEDKRNYYLVMEVYRGGELFDEIILRQKFSEVDAAVIMKQVLSGTTYLHKHNIVHRDLKPENLLLESKSRDALIKIVDFGLSAHFEVGGKMKERLGTAYYIAPEVLRKKYDEKCDVWSCGVILYILLCGYPPFGGQTDQEILKRVEKGKFSFDPPDWTQVSDEAKQLVKLMLTYEPSKRISAEEALNHPWIVKFCSQKHTDVGKHALTGALGNMKKFQSSQKLAQAAMLFMGSKLTTLEETKELTQIFRQLDNNGDGQLDRKELIEGYRKLMQWKGDTVSDLDSSQIEAEVDHILQSVDFDRNGYIEYSEFVTVCMDKQLLLSRERLLAAFQQFDSDGSGKITNEELGRLFGVTEVDDETWHQVLQECDKNNDGEVDFEEFVEMMQKICDVKVKH” it was “soluble”; in that of “MGSDKIHHHHHHMAGMQIQGMQIESIDIQNYRLFKQASLNKLSRLAVFVGENGAGKSTIFDVFSFLKDSLAQNAAKAVARRGGFKELVSRGTEGPISITLKFRETGGRLATYELSVAFEGGRVVVDREVLKFRRGQRGQPWHFVDFSRGRGTAVTNEAMYGKPGVKVERKEYILDEPTVLAIKGLGQFKEFRVVSEFRNLIENWHITDFHIADARPSAEEGYAEHLSTRGDNVAQVAQFLYDHHPDRFNNILDAMKRRIPGVEKVEAKPTEDGRLVLRFQDGAFKDPFIARYVSDGTIKMFAYLVLLHDPNPFPLLAVEEPENQLYPELLQELAEEFRDYARRGGQVFISTHSPEFMNGLYLDEIYWLSKKDGYSTIYRGADSEVLKRLVAEGDHPGALWRQGVFKGAW”, “not soluble”; in that of “MAHHHHHHMKCFYITEKGKKQNFRNIKLITFDLDHTIWNIDGLLNYADKECYEYMKKNYRRLYDYLQEEYQLSITNLVKQLLENKIEDNNDGVQTLTNMRIDALKFLAKKTNYDEGKFVSEIQELWKEKKNDVHLFISPGTLEYLRELKRRGYTLGAITNGDSDVNGIKFLNEIFTFVIRSMDYNHSKPSVEIFNIAENILKKKNFHFEIHQWMHVGDDVYTDIMGAKNKNINCAWITMFRDGSEVPPNDWYPYLKLKLEENGDSHLSQYDPFADGLFSRFRRRDVVLPYEYIDIE”, “not soluble”.
On to “MSLGIKAVIFDLDGVIVSTDEYHYRAWKAMADEEGIYFDKRINERLRGVGRMESLEIILEKAKKTYNTKEKIQMTERKNFIYRELLNELTPKHILKGVMNVLETLRAKNIKIAIGSSSKNTSIILEKIKLDKYFDAVADGREIKKSKPNPEVFLLAAKKLKVSPEECLIVEDADAGVEAAIAGGMKVLAVGYASNNIKANYKFKDLSCVDIKEVICKEGHHHHHH”, for which the “soluble on expression in E. coli” value is listed as “soluble”.
Under “MDYQLYTLPSGLHVVYKPHAGEVTYAGFAIGVGTRHESSRHHGLAHLTEHMLFKGTSLRNSLQIIRRMEEVGAELNAFTEKESTYVYCIFPKAHFNRATNLLFDIVQHSRFPEEELTKEKTVVIDEIDSYRDNPSELIFDEFENILFRHHPLGHNILGTEASVSRITGQIGRNFLRRHYRPDNMIFFLAGEADLSDWPLNPAEKVSIRNTDGTPLHTLREGFLPRTIRRHKDTYQHHILMGGPAYSLHDDRRIPLSLLNNILGGPGMNSRLNLSLREEHGYVYNVESNYTPYSDTGVFNIYLGCAPRYAEAAMELVRKELRYLIEHPLSPIELESAKRQFKGQLIVSADNKESTFLSLGKSMLLYGKYDPLSDIFHRIDAITSDRLREIAAEVLNPDSMLTLIYC” stands “not soluble”; under “MSLQFSVLASGSTGNAFYLETEDHAFLVDAGLSGKAMDGLMAQIGRKLDDVDGIFVTHEHSDHIKGLGVVARKYKLPIYANEKTWKAMENQIGKIDTDQKFVFPMETVKSFGGLDVESFGVSHDAAEPMFYVFHYSGRKLALMTDTGYVSDRMKGIIRSANVFVFESNHDVGMLQMGRYPWSIKRRILSDVGHVSNEDAALAMTDVIGDETSRIYLAHLSQDNNMKELARMSVQQTLASKGFVTGETFDLYDTDPKKATPLWLYNFSMLEHHHHHH”, “not soluble”.
Under “MGSDKIHHHHHHMRITNTLTGKKEEFVPIQPGVVRMYVCGPTVYDLIHVGNARPALVFDVFRRYLEYRGYRVIMVQNFTDIDDKIINKANQLGVDYKTVADTFIAEYWRDAHALGIRPANFHPRTTDFVEDIVEIIEKLVEKGFAYQTETGVYFDVRKFEKYGELSKKKIEDLIAGARVEVDETKKSPLDFSLWKKAKPGEPCWKSPWGEGRPGWHIECTVMSVKILGESFDIHAGGEDLVFPHHENEKAQAEALTGKVFARYWMHNGMVRFLGDKMSKSTGNIFTVREAVKRYGRDGLRYMILSKHYRSPMDFSEELLQDYSRAVKRVWEILGRYEKSGDIGIPKRNAVYEEYVNRFVEALDDDFNTPVAVSLIFELARNLSKAMDDNDREDALLYYHLIRREFGPVLGLFDLNEEKKEVSSEELLKLLIEVRDVLRKEKRYDLSDRIRDRLREIGIILKDTPSGTEYTVE” stands “not soluble”.

The values are drawn from the DeepSol protein solubility set.
